Reference: paper PMC6114919
pKd: −log10 of the molar value.

Key:
[1] = target: Exonuclease-deficient (Exo-) p140 catalytic subunit of DNA polymerase gamma (POLG) (human) (UniProt P54098); assay: DNA polymerase activity titration (formation of active holoenzyme); holoenzymes preassembled on ice in EDB (50 mM Tris-HCl pH 7.5, 10% glycerol, 1 mM EDTA, 1 mM 2-ME, 100 mM KCl, 0.005% NP-40) with constant 2.5 nM p140 and 0-25 nM p55; activity on poly(rA)•oligo(dT)12-18 at 220 mM NaCl, 37°C, 9 min; apparent Kd from activity against the concentration of p55 dimer
[2] = system: WT p55 (Pol gamma accessory subunit) (human); assay: EMSA; details: EMSA in triplicate as previously described (ref 22); buffer, salt, pH and temperature not given in the material
R182W p55 (human) = assay: EMSA; details: EMSA in triplicate as previously described (ref 22); buffer, salt, pH and temperature not given in the material
p55 (Homo sapiens) = p55 (Homo sapiens) (UniProt Q9UHN1); details: cited from earlier work

Chain of p55 (Q9UHN1 2-485): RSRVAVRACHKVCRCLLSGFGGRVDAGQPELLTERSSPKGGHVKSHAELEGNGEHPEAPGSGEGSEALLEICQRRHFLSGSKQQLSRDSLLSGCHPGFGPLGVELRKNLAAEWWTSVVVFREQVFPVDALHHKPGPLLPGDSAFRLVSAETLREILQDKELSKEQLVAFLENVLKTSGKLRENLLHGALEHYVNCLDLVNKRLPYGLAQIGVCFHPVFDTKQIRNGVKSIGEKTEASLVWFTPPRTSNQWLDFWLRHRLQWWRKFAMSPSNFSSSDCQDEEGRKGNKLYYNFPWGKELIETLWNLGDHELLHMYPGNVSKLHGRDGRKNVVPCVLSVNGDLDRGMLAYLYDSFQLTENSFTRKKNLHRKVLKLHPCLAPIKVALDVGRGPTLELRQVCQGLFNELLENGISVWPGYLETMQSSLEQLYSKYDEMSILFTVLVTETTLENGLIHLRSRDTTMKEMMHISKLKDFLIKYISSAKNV

“R182W p55 accessory subunit of DNA polymerase gamma (POLG2 Chr17: 62492543G>A) (natural protein)” gave a pKd [1] of 9.96.

“47-nucleotide double-stranded DNA oligomer” showed a pKd [2] of 7.05 and a pKd (R182W p55 (human)) of 7.07.

In the case of “Wild-type p55 accessory subunit of DNA polymerase gamma (POLG2) (natural protein)”, the pKd [1] was 9.46.

In the case of p55 (from UniProt Q9UHN1), the pKd (p55 (Homo sapiens)) is given as over 10.00.
